Assay results as given in US20260274985A1 (MYTHIC THERAPEUTICS, published 2026).
Positions count from the first letter of the chain named.

T1: Human TROP2 Protein, His Tag (Acro Biosystems) (human, UniProt P09758 27-274)
T1 construct: Bought antigen used at 50 nM in the Octet screen; also called TACSTD2; not shown: His tag
T1 sequence (looked up): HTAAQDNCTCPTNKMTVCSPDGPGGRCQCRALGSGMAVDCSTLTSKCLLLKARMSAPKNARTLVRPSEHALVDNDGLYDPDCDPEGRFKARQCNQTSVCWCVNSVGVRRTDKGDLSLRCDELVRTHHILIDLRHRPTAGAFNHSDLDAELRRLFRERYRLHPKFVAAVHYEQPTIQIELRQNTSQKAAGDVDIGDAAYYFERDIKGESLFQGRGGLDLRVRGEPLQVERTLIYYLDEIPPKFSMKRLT

B1: MYT11705 (antibody, V domains shown)
VH: QVQLQESGPGLVKPSETLSLTCTVSHGSISSYGVHWIRQPPGKGLEWIGVIWTSGVTDYNSALMGRVTISVDTSKNQFSLKLSSVTAADTAVYYCARDGDYDRYTMDYWGQGTLVTVSS
VL: DIVMTQSPDSLAVSLGERATINCRASKSVSTSGYSYMHWYQQKPGQPPKLLIYLASNLESGVPDRFSGSGSGTDFTLTISSLQAEDVAVYYCQHSRELPYTFGQGTKLEIK
notes: hu7E6SVG variant, His at HCV position 26 (H1 01); screened as IgG in Expi293 supernatant
B2: MYT11735 (antibody, V domains shown)
VH: B1 VH with H26G, D100H
VL: B1 VL
notes: hu7E6SVG variant, His at HCV position 100 (H3 05); screened as IgG in Expi293 supernatant
B3: MYT11732 (antibody, V domains shown)
VH: B1 VH with H26G, R97H
VL: B1 VL
notes: hu7E6SVG variant, His at HCV position 97 (H3 02); screened as IgG in Expi293 supernatant
B4: MYT11719 (antibody, V domains shown)
VH: B1 VH with H26G, S54H
VL: B1 VL
notes: hu7E6SVG variant, His at HCV position 54 (H2 05); screened as IgG in Expi293 supernatant
B5: MYT11730 (antibody, V domains shown)
VH: B1 VH with H26G, G65H
VL: B1 VL
notes: hu7E6SVG variant, His at HCV position 65 (H2 16); screened as IgG in Expi293 supernatant
B6: MYT11712 (antibody, V domains shown)
VH: B1 VH with H26G, G33H
VL: B1 VL
notes: hu7E6SVG variant, His at HCV position 33 (H1 08); screened as IgG in Expi293 supernatant
B7: MYT11707 (antibody, V domains shown)
VH: B1 VH with H26G, S28H
VL: B1 VL
notes: hu7E6SVG variant, His at HCV position 28 (H1 03); screened as IgG in Expi293 supernatant
B8: MYT11713 (antibody, V domains shown)
VH: B1 VH with H26G, V34H
VL: B1 VL
notes: hu7E6SVG variant, His at HCV position 34 (H1 09); screened as IgG in Expi293 supernatant
B9: MYT11743 (antibody, V domains shown)
VH: B1 VH with H26G, Y108H
VL: B1 VL
notes: screened as IgG in Expi293 supernatant
B10: MYT11727 (antibody, V domains shown)
VH: B1 VH with H26G, A62H
VL: B1 VL
notes: hu7E6SVG variant, His at HCV position 62 (H2 13); screened as IgG in Expi293 supernatant
B11: MYT11716 (antibody, V domains shown)
VH: B1 VH with H26G, I51H
VL: B1 VL
notes: hu7E6SVG variant, His at HCV position 51 (H2 02); screened as IgG in Expi293 supernatant
B12: MYT11740 (antibody, V domains shown)
VH: B1 VH with H26G, T105H
VL: B1 VL
notes: as for B9
B13: MYT11715 (antibody, V domains shown)
VH: B1 VH with H26G, V50H
VL: B1 VL
notes: hu7E6SVG variant, His at HCV position 50 (H2 01); screened as IgG in Expi293 supernatant
B14: MYT11728 (antibody, V domains shown)
VH: B1 VH with H26G, L63H
VL: B1 VL
notes: hu7E6SVG variant, His at HCV position 63 (H2 14); screened as IgG in Expi293 supernatant
B15: MYT11718 (antibody, V domains shown)
VH: B1 VH with H26G, T53H
VL: B1 VL
notes: hu7E6SVG variant, His at HCV position 53 (H2 04); screened as IgG in Expi293 supernatant
B16: MYT11738 (antibody, V domains shown)
VH: B1 VH with H26G, R103H
VL: B1 VL
B17: MYT11736 (antibody, V domains shown)
VH: B1 VH with H26G, Y101H
VL: B1 VL
notes: hu7E6SVG variant, His at HCV position 101 (H3 06); screened as IgG in Expi293 supernatant
B18: MYT11711 (antibody, V domains shown)
VH: B1 VH with H26G, Y32H
VL: B1 VL
notes: hu7E6SVG variant, His at HCV position 32 (H1 07); screened as IgG in Expi293 supernatant
B19: MYT11742 (antibody, V domains shown)
VH: B1 VH with H26G, D107H
VL: B1 VL
notes: as for B9
B20: MYT11714 (antibody, V domains shown)
VH: B1 VH with H26G, H35A
VL: B1 VL
notes: hu7E6SVG variant, Ala in place of His at HCV position 35 (H1 10); screened as IgG in Expi293 supernatant
B21: MYT11723 (antibody, V domains shown)
VH: B1 VH with H26G, D58H
VL: B1 VL
notes: hu7E6SVG variant, His at HCV position 58 (H2 09); screened as IgG in Expi293 supernatant
B22: MYT11726 (antibody, V domains shown)
VH: B1 VH with H26G, S61H
VL: B1 VL
notes: hu7E6SVG variant, His at HCV position 61 (H2 12); screened as IgG in Expi293 supernatant
B23: MYT11724 (antibody, V domains shown)
VH: B1 VH with H26G, Y59H
VL: B1 VL
B24: MYT11709 (antibody, V domains shown)
VH: B1 VH with H26G, S30H
VL: B1 VL
notes: hu7E6SVG variant, His at HCV position 30 (H1 05); screened as IgG in Expi293 supernatant
B25: MYT11706 (antibody, V domains shown)
VH: B1 VH with H26G, G27H
VL: B1 VL
notes: hu7E6SVG variant, His at HCV position 27 (H1 02); screened as IgG in Expi293 supernatant
B26: MYT11721 (antibody, V domains shown)
VH: B1 VH with H26G, V56H
VL: B1 VL
notes: hu7E6SVG variant, His at HCV position 56 (H2 07); screened as IgG in Expi293 supernatant
B27: MYT11734 (antibody, V domains shown)
VH: B1 VH with H26G, G99H
VL: B1 VL
notes: hu7E6SVG variant, His at HCV position 99 (H3 04); screened as IgG in Expi293 supernatant
B28: MYT11710 (antibody, V domains shown)
VH: B1 VH with H26G, S31H
VL: B1 VL
notes: hu7E6SVG variant, His at HCV position 31 (H1 06); screened as IgG in Expi293 supernatant
B29: MYT11729 (antibody, V domains shown)
VH: B1 VH with H26G, M64H
VL: B1 VL
notes: hu7E6SVG variant, His at HCV position 64 (H2 15); screened as IgG in Expi293 supernatant
B30: MYT11725 (antibody, V domains shown)
VH: B1 VH with H26G, N60H
VL: B1 VL
notes: hu7E6SVG variant, His at HCV position 60 (H2 11); screened as IgG in Expi293 supernatant
B31: MYT11737 (antibody, V domains shown)
VH: B1 VH with H26G, D102H
VL: B1 VL
notes: as for B9
B32: MYT11720 (antibody, V domains shown)
VH: B1 VH with H26G, G55H
VL: B1 VL
notes: hu7E6SVG variant, His at HCV position 55 (H2 06); screened as IgG in Expi293 supernatant
B33: MYT11733 (antibody, V domains shown)
VH: B1 VH with H26G, D98H
VL: B1 VL
notes: hu7E6SVG variant, His at HCV position 98 (H3 03); screened as IgG in Expi293 supernatant
B34: MYT11731 (antibody, V domains shown)
VH: B1 VH with H26G, A96H
VL: B1 VL
notes: hu7E6SVG variant, His at HCV position 96 (H3 01); screened as IgG in Expi293 supernatant
B35: MYT11739 (antibody, V domains shown)
VH: B1 VH with H26G, Y104H
VL: B1 VL
notes: hu7E6SVG variant, His at HCV position 104 (H3 09); screened as IgG in Expi293 supernatant
B36: MYT11722 (antibody, V domains shown)
VH: B1 VH with H26G, T57H
VL: B1 VL
notes: hu7E6SVG variant, His at HCV position 57 (H2 08); screened as IgG in Expi293 supernatant
B37: MYT11708 (antibody, V domains shown)
VH: B1 VH with H26G, I29H
VL: B1 VL
notes: hu7E6SVG variant, His at HCV position 29 (H1 04); screened as IgG in Expi293 supernatant
B38: MYT11744 (antibody, V domains shown)
VH: B1 VH with H26G
VL: B1 VL with R24H
notes: hu7E6SVG variant, His at LCV position 24 (L1 01); screened as IgG in Expi293 supernatant

Molecular target: T1, Human TROP2 Protein, His Tag (Acro …)
Test: BLI (Octet) [1/2]
Experimental: After allowing for four days of protein expression, cell culture supernatants were collected, quantified by SDS-PAGE analysis (DNS), and the pH dependence of the variant was evaluated using biolayer interferometry (BLI) on an Octet RED 96e instrument. Briefly, cell culture supernatants were diluted based on qualitative expression level of the variant determined by visual examination of SDS-PAGE gels, 5 μL of cell culture supernatant was diluted into 195 μL of 1×PBST, pH 7.4 for high expressors, 25 μL of cell culture supernatant was diluted into 175 μL of 1×PBST, pH 7.4 for medium expressors and 100 μL of cell culture supernatant was diluted into 100 μL of 1×PBST, pH 7.4 for low expressors for loading onto the sensor tips. The resulting diluted supernatants were then captured on an anti-human Fc sensor (Forte Bio). A baseline was established using 1×PBST (50 mM Potassium Phosphate Buffer+150 mM NaCl+0.05% Tween 20) pH 7.4, and the sensor was associated with 50 nM of TROP2 (Human TROP2 Protein, His Tag, Acro Biosystems) in 1×PBST pH 7.4 for 120 sec to generate an association curve. In the dissociation phase, the antibody-antigen complex on the sensor was exposed to 1×PBST pH 7.4 or pH 5.4, for 300 sec. Association and dissociation phase curves were examined for the starting ABPC antibody (with no substitutions) and each corresponding antibody variant at pH 5.4 and pH 7.4 to inform on two criteria: a) enhanced dissociation (i.e., higher koff values) at pH 5.4 due to histidine or alanine substitution compared to the starting ABPC, (with no substitutions), and b) reduced dissociation at pH 7.4 (i.e., lower koff values) compared to pH 5.4 in the antibody variant itself and with the starting ABPC (with no substitutions). […] It was also noted that while some mutations obliterated TROP2 binding, others were tolerated with little or n change in TROP2 binding kinetics.

| Binder | binding result |
| --- | --- |
| B1 | binds |
| B2 | binds |
| B3 | binds |
| B4 | binds |
| B5 | binds |
| B6 | binds |
| B7 | binds |
| B8 | binds |
| B9 | binds |
| B10 | binds |
| B11 | binds |
| B12 | no binding (tested: 50 nM) |
| B13 | no binding (tested: 50 nM) |
| B14 | binds |
| B15 | binds |
| B16 | binds |
| B17 | no binding (tested: 50 nM) |
| B18 | binds |
| B19 | binds |

| Binder | binding result |
| --- | --- |
| B20 | binds |
| B21 | no binding (tested: 50 nM) |
| B22 | binds |
| B23 | binds |
| B24 | binds |
| B25 | binds |
| B26 | binds |
| B27 | no binding (tested: 50 nM) |
| B28 | binds |
| B29 | binds |
| B30 | binds |
| B31 | binds |
| B32 | binds |
| B33 | no binding (tested: 50 nM) |
| B34 | no binding (tested: 50 nM) |
| B35 | no binding (tested: 50 nM) |
| B36 | binds |
| B37 | binds |
| B38 | binds |
